Source: patent US20260055148A1 (USTAV ORGANICKE CHEMIE A BIOCHEMIE AV CR V V I, published 2026)

Target: T1, His-C3d-Avi, biotinylated (human complement C3d with N-terminal His-tag and C-terminal Avi-tag) (human, UniProt P01024 996-1303, site-specific biotinylation of the C-terminal Avi-tag)
T1 construct: domain: C3d; SPR ligand for the ISG65 mutants; not shown: N-terminal His-tag (pET15b); C-terminal Avi-tag
Test: SPR, biotinylated C3d-Avi immobilised, ISG65 Y293A as analyte

T1 sequence (P01024 996-1303 limits assumed): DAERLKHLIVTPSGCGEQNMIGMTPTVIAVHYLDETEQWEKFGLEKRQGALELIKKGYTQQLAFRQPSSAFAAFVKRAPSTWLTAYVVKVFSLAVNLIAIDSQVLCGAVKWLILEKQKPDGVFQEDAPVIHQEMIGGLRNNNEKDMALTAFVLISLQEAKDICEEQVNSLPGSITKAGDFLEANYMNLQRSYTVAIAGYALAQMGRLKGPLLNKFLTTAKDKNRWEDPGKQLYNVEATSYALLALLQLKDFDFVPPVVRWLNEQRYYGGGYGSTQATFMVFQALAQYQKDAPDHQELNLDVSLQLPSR

B1: His-ISG65 18-363 Y293A (receptor)
chain: MGSSHHHHHHSSGLVPRGSHMLLVIGSEDNRVPGDKKLTKEGAAALCKMKHLADKVAKERSQELKDRTQNFAGYIEFELYRIDYWLEKLNGPKGRKDGYAKLSDSDIEKVKEIFNKAKDGITKQLPEAKKAGEEAGKLHTEVKKAAENARGQDLDDDTAKSTGLYRVLNWYCITKEERHNATPNCDGIQFRKHYLSVNRSAIDCSSTSYEENYDWSANALQVALNSWEDVKPKKLESAGSDKNCNIGQSSESHPCTMTEEWQTPYKETVEKLRELEDAYQRGKKAHDAMLGYANTAAAVNTKVEQEKPLTEVIAAAKEAGKKGAKIIIPAAAPATPTNSTKNDDSAPTEHVDRGIATNETQVEVGID
notes: also called ISG65 Y293A
binding result: no binding (tested: ISG65 1.5-100 nM)
